Test results: publication PMC10620681, “Concentration and time-dependent amyloidogenic characteristics of intrinsically disordered N-terminal region of Saccharomyces cerevisiae Stm1” (Frontiers in Microbiology, 2023)

Molecular target: the molecule itself
Assay: thioflavin-T fluorescence (emission spectra and kinetics); 20 uM Th-T with 1-400 uM Stm1_N 1-113; 10 mM sodium phosphate with 10 or 150 mM NaCl, pH 7.4, 25 °C; emission at 0 h, kinetics until 72 h; signal from 50 uM onwards

B1: Stm1 N-terminal region (Stm1_N^1-113) of Saccharomyces cerevisiae Stm1 (domain or fragment, UniProt P39015 1-113, looked up)
chain: MSNPFDLLGNDVEDADVVVLPPKEIVKSNTSSKKADVPPPSADPSKARKNRPRPSGNEGAIRDKTAGRRNNRSKDVTDSATTKKSNTRRATDRHSRTGKTDTKKKVNQGWGDD
notes: Stm1, Saccharomyces cerevisiae (S288c), stm1 gene YLR150W, residues 1-113 of the 273 amino acids long protein; the insert is 342 nucleotides with the termination codon; Order in the construct: N-terminal His6-tag, GB1 solubility tag, TEV protease cleavage site, Stm1_N 1-113 (vector pDZ1, a modified pET-21a); A few residues from the TEV site and the NdeI site may be left at the N-terminus after …
binding result: binds
